Laboratory results as given in patent publication US20150011421.

How the values were obtained:
[1] = test system: H2N-(CH2)4-CO-(SEQ ID NO:1)-NH-CH2-Fc
[2] = test system: H2N-(CH2)4-CO-(SEQ ID NO:2)-NH-CH2-Fc
[3] = test system: H2N-(CH2)4-CO-(SEQ ID NO:5)-NH-CH2-Fc
[4] = test system: T1, Biotin-AEEEIYGEFEAKKKKC (SEQ ID NO:4)
T1 sequence: AEEEIYGEFEAKKKKC

[5] = molecular target: T2, Biotin-AEEEIYGEFEAKKKKC (SEQ ID NO:4), fully phosphorylated by c-Src kinase
T2 chain: AEEEIYGEFEAKKKKC

[6] = molecular target: T3, H2N-(CH2)4-CO-(SEQ ID NO:1)-NH-CH2-Fc
T3 chain: AANL

Z-Ala-Ala-Asn-AMC = molecular target: T4, Z-Ala-Ala-Asn-AMC
T4 chain: AAN

## Purified recombinant human cathepsin B (R&D Systems), activated in 5 mM DTT and 25 mM MES buffer (pH 5.0)
[1]
  ACV peak current after adding activated cathepsin B (negative control): The peak current ip,acv of these two tetrapeptides did not show the characteristic exponential decay while the activated cathepsin B was added
[2]
  cleavage product by HPLC/MS after 2 h incubation in solution: The cleavage product, Phe-Gly-NH-CH2-Fc appeared at 37 min, was found confirming that the proteolysis took place at the arginine site
[3]
  ACV peak current after adding activated cathepsin B (negative control, P1 Arg replaced by Asn): The peak current ip,acv of these two tetrapeptides did not show the characteristic exponential decay while the activated cathepsin B was added

## Active c-Src kinase protein (N-terminal 6His-tagged recombinant human c-Src, molecular weight 61.7 kDa)
[4]
  phosphorylation of the immobilized peptide: The peptide at the VACNF NEA was fully phosphorylated with 1-hour further incubation in c-Src kinase solution

B1: PTP1B (residues 1-322, molecular weight 37.4 kDa) (protein)
chain: MEMEKEFEQIDKSGSWAAIYQDIRHEASDFPCRVAKLPKNKNRNRYRDVSPFDHSRIKLHQEDNDYINASLIKMEEAQRSYILTQGPLPNTCGHFWEMVWEQKSRGVVMLNRVMEKGSLKCAQYWPQKEEKEMIFEDTNLKLTLISEDIKSYYTVRQLELENLTTQETREILHFHYTTWPDFGVPESPASFLNFLFKVRESGSLSPEHGPVVVHCSAGIGRSGTFCLADTCLLLMDKRKDPSSVDIKKVLLEMRKFRMGLIQTADQLRFSYLAVIEGAKFIMGDSSVQDQWKELSHEDLEPPPEHIPPPPRPPKRILEPHNG
[5]
  (kcat/Km)[E0], slope of -d(|Z|/|Z0|)/dt vs. |Z|/|Z0|, [E0]=2.4 nM: a slope of 0.0522 s^-1
  decrease in |Z| (REIS) over ~100 s after adding 2.4 nM PTP1B: A sharp decrease in |Z| by ~1,150Ω (~6.3%)
  decrease in |Z| (REIS) over ~100 s after adding 2.4 nM PTP1B, percent: A sharp decrease in |Z| by ~1,150Ω (~6.3%)
  specificity constant kcat/Km (REIS, 2.4 nM PTP1B): 2.2e+07 M⁻¹ s⁻¹
  specificity constant kcat/Km (REIS, average of 7 data sets at three PTP1B concentrations): an average value of 2.1×10^7 M^-1 s^-1 and a standard deviation of 1.0×10^6 M^-1 s^-1

B2: Recombinant human legumain/asparaginyl endopeptidase (R&D Systems), activated in 50 mM CH3COONa (pH 4.0) and 100 mM NaCl (protein)
chain: VPIDDPEDGGKHWVVIVAGSNGWYNYRHQADACHAYQIIHRNGIPDEQIVVMMYDDIAYSEDNPTPGIVINRPNGTDVYQGVPKDYTGEDVTPQNFLAVLRGDAEAVKGIGSGKVLKSGPQDHVFIYFTDHGSTGILVFPNEDLHVKDLNETIHYMYKHKMYRKMVFYIEACESGSMMNHLPDNINVYATTAANPRESSYACYYDEKRSTYLGDWYSVNWMEDSDVEDLTKETLHKQYHLVKSHTNTSHVMQYGNKTISTMKVMQFQGMKRKASSPVPLPPVTHLDLTPSPDVPLTIMKRKLMNTN
[6]
  (kcat/Km)[E0], slope of reaction rate vs. surface adsorbed Fc, [E0]=773 nM: a slope of 6.32×10^-4 s^-1
  (kcat/Km)[E0], slope of vi vs. Γsurf, [E0]=80.1 nM: the slope of 6.30×10^-4 s^-1 at [E0]=80.1 nM
  specificity constant kcat/KM (electrochemistry, EC, VACNF NEAs): 11300 M⁻¹ s⁻¹
  specificity constant kcat/Km (ACV on VACNF NEA), as given in the summary of Example 1: 8200 M⁻¹ s⁻¹
  specificity constant kcat/Km (ACV, single experiment at 80.1 nM): 7900 M⁻¹ s⁻¹
  time constant in the fit of surface adsorbed Fc vs. time: the time constant is 1101 s (~48 min)
  time constant of the exponential decay of the ACV peak current after adding legumain: The time constant is 1076 s (~18 min.)
Z-Ala-Ala-Asn-AMC
  specificity constant kcat/KM (fluorescence assay, FL): 4300 M⁻¹ s⁻¹
